In PMC6423188, “HYNIC and DOMA conjugated radiolabeled bombesin analogs as receptor-targeted probes for scintigraphic detection of breast tumor” (EJNMMI Research, 2019):

Assays:
physchem = type: physicochemical; conditions: pH 7.4
Procedure: Lipophilicity of the HPLC-purified radiopeptide analogs was determined through octanol/water partition coefficients, determined at pH 7.4 by measuring the distribution of the HPLC purified radiolabeled peptides in 1-octanol and PBS. Then, 50 μL HPLC purified ^99mTc-BN1/^99mTc-BN2/^99mTc-BN3/^99mTc-BN4/^99mTc-BNS with 100 μCi of radiolabeled compound in PBS was added to a to a centrifuge tube containing 1 mL n-octanol and 1 mL PBS (0.025 M, pH 7.4). The tube was vortexed at room temperature for 2 min and they are centrifuged at 5000 rpm for 5 min to ensure complete separation of layers. Further, 100 μL of each phase was transferred into a separate pre-weighed vial and measured in the well γ-counter. The ratio of octanol layer counts to aqueous layer counts was expressed as the distribution coefficient (D, the appropriate descriptor for ionizable compounds) and logD was used for determination of lipophilicity. Counts per unit weight of the sample were calculated, and logD value as calculated as follows:
log10D = log10 [(cpm in octanol – cpm in background) / (cpm in buffer – cpm in background)]

in vitro = in vitro ADME; conditions: rat
Procedure: An aliquot (100 μL) of ^99mTc-BN1/^99mTc-BN2/^99mTc-BN3/^99mTc-BN4/^99mTc-BNS was added to 1 mL of freshly collected rat serum in centrifuge tube. The mixture was then incubated at 37 °C for 1 h; the serum protein was precipitated by adding 1 mL trichloroacetic acid (10%, V/V). The supernatant and precipitate were separated by centrifugation at 3000 rpm for 5 min. Radioactivities of both the phases were measured separately. The above experimental procedure was repeated three times. The percentage of protein binding was determined as: Plasma protein binding % = (precipitate counts (CPM) / [precipitate counts (CPM) + plasma counts (CPM)]) × 100%.

[1] = test system: MDA-MB-231 tumor-bearing mice; assay: In vivo biodistribution; parameters: species or system mouse; conditions: mean ± SD, n = 3; for Tumor uptake: MDA-MB-231 tumor
Procedure: All animal experiments were done according to the CSIR-IICB Animal Ethics Committee’s rules and regulation. Forty-eight hours before tumor cell implantation, an immunosuppressive drug (cyclosporine-A) was given intraperitoneal (i.p) at a concentration of 30 mg/kg/day. After that, MDA-MB-231 cells (5 × 10^6) 0.2 mL were implanted subcutaneously into the left flanks of the hind leg of BALB/c mice. Thereafter, the same dose of cyclosporine was given i.p. daily up to 2 weeks. Two weeks after inoculation of the tumor cells, when tumors reached ~ 0.5 cm in mean diameter, the tumor-bearing mice were used for biodistribution and imaging studies. Animals were monitored daily and their weights were recorded. Control group of mice received only 0.9 wt% saline. After cell implantation, the growth rate of the breast tumor followed a satisfactory pattern of spheroid shape and tumors are palpable within 2 to 4 weeks. MDA-MB-231 cell implanted mice tumor models were used for biodistribution and planar imaging studies of these radiolabeled new bombesin analogs.
In tissue biodistribution studies, tumor-bearing animals were divided into four groups and well hydrated for 1 h by intraperitoneal administration of saline (0.9%, 2 mL). Three animals per groups were used for biodistribution studies. After that, the radiolabeled new bombesin analogs (^99mTc-BN) were injected intravenously in each animal of each group consequently through the tail vein [24–27]. After 5, 30, 60, and 120 min intravenous administrations of radiolabeled analogs, the animals were sacrificed; blood, heart, lung, liver, kidney, stomach, intestine, spleen, pancreas, brain, muscle, and tumor were excised, weighed, and counted for radioactivity. The organ uptake was calculated as a percentage of the injected activity per gram of wet tissue (%IA/g). In order to evaluate whether binding of bombesin analogs to MDA-MB-231 cells in vivo is specific; blocking studies with ^99mTc-labeled bombesin analogs in tumor-bearing mice were carried out. Groups of three animals were injected 0.03 nmol of ^99mTc-labeled BN analogs (2 MBq) with 25 nmol of non-radiolabeled BN peptide. After 60 min and 120 min, mice were sacrificed and the organs were collected. Each organ was weighed and counted in a gamma counter along with activity standard and percentage of injected activity per gram (%IA/g) of tissue was calculated for each type of tissues. Counts were corrected for background radiation and physical decay of the radioactivity. The uptake was expressed in the percentage of injected activity per gram of each organ (%IA/g). Data were analyzed statistically by the t test, with the level of significance set at P < 0.05.

[2] = 60 min p.i., blocked with excess non-radiolabeled BN peptide

For “^99mTc-HYNIC-Pro-Asp-[Tyr^13Met^14]BN(7-14)NH2 [99mTc-BN2]”, the logD (physchem) was “− 1.78 ± 0.04”, the “Percentage of plasma protein binding” value (in vitro) was 41.23% and the Tumor uptake ([1]; 5 min p.i., i.v.) was 0.79 ± 0.12 %IA/g. It also gave a Blood uptake ([1]; 5 min p.i., i.v.) of 1.03 ± 0.05 %IA/g, a Heart uptake ([1]; 5 min p.i., i.v.) of 0.59 ± 0.02 %IA/g and an Intestine uptake ([1]; 5 min p.i., i.v.) of 0.73 ± 0.03 %IA/g. It also gave a Kidney uptake ([1]; 5 min p.i., i.v.) of 2.05 ± 0.10 %IA/g, a Liver uptake ([1]; 5 min p.i., i.v.) of 1.47 ± 0.07 %IA/g and a Lung uptake ([1]; 5 min p.i., i.v.) of 0.91 ± 0.04 %IA/g. The Muscle uptake ([1]; 5 min p.i., i.v.) was 0.24 ± 0.01 %IA/g, the Pancreas uptake ([1]; 5 min p.i., i.v.) was 0.95 ± 0.01 %IA/g and the Spleen uptake ([1]; 5 min p.i., i.v.) was 0.95 ± 0.04 %IA/g. For the same substance, the Stomach uptake ([1]; 5 min p.i., i.v.) was 0.74 ± 0.03 %IA/g, the “Urine + urinary bladder uptake” value ([1]; 5 min p.i., i.v.) was 0.56 ± 0.02 %IA/g and the Tumor uptake ([1]; 30 min p.i., i.v.) was 1.85 ± 0.05 %IA/g. It also gave a Blood uptake ([1]; 30 min p.i., i.v.) of 0.78 ± 0.03 %IA/g, a Heart uptake ([1]; 30 min p.i., i.v.) of 0.46 ± 0.01 %IA/g and an Intestine uptake ([1]; 30 min p.i., i.v.) of 1.05 ± 0.05 %IA/g. The Kidney uptake ([1]; 30 min p.i., i.v.) was 4.76 ± 0.20 %IA/g, the Liver uptake ([1]; 30 min p.i., i.v.) was 1.23 ± 0.06 %IA/g and the Lung uptake ([1]; 30 min p.i., i.v.) was 0.89 ± 0.11 %IA/g. For the same substance, the Muscle uptake ([1]; 30 min p.i., i.v.) was 0.20 ± 0.02 %IA/g, the Pancreas uptake ([1]; 30 min p.i., i.v.) was 2.07 ± 0.10 %IA/g and the Spleen uptake ([1]; 30 min p.i., i.v.) was 0.75 ± 0.03 %IA/g. For the same substance, the Stomach uptake ([1]; 30 min p.i., i.v.) was 1.01 ± 0.05 %IA/g, the “Urine + urinary bladder uptake” value ([1]; 30 min p.i., i.v.) was 1.92 ± 0.07 %IA/g and the Tumor uptake [1, 2] was 0.78 ± 0.03 %IA/g. It also gave a Blood uptake [1, 2] of 0.38 ± 0.01 %IA/g, a Heart uptake [1, 2] of 0.27 ± 0.02 %IA/g and an Intestine uptake [1, 2] of 1.25 ± 0.02 %IA/g. For the same substance, the Kidney uptake [1, 2] was 3.37 ± 0.10 %IA/g, the Liver uptake [1, 2] was 1.09 ± 0.04 %IA/g and the Lung uptake [1, 2] was 0.73 ± 0.04 %IA/g. For the same substance, the Muscle uptake [1, 2] was 0.20 ± 0.02 %IA/g, the Pancreas uptake [1, 2] was 0.85 ± 0.02 %IA/g and the Spleen uptake [1, 2] was 0.45 ± 0.03 %IA/g. For the same substance, the Stomach uptake [1, 2] was 0.70 ± 0.02 %IA/g, the “Urine + urinary bladder uptake” value [1, 2] was 4.50 ± 0.08 %IA/g and the Tumor uptake ([1]; 60 min p.i., i.v.) was 0.98 ± 0.04 %IA/g. It also gave a Blood uptake ([1]; 60 min p.i., i.v.) of 0.35 ± 0.01 %IA/g, a Heart uptake ([1]; 60 min p.i., i.v.) of 0.23 ± 0.12 %IA/g and an Intestine uptake ([1]; 60 min p.i., i.v.) of 1.46 ± 0.02 %IA/g. For the same substance, the Kidney uptake ([1]; 60 min p.i., i.v.) was 3.34 ± 0.16 %IA/g, the Liver uptake ([1]; 60 min p.i., i.v.) was 1.01 ± 0.05 %IA/g and the Lung uptake ([1]; 60 min p.i., i.v.) was 0.78 ± 0.03 %IA/g. The Muscle uptake ([1]; 60 min p.i., i.v.) was 0.18 ± 0.03 %IA/g, the Pancreas uptake ([1]; 60 min p.i., i.v.) was 1.08 ± 0.05 %IA/g and the Spleen uptake ([1]; 60 min p.i., i.v.) was 0.48 ± 0.02 %IA/g. The Stomach uptake ([1]; 60 min p.i., i.v.) was 0.82 ± 0.04 %IA/g, the “Urine + urinary bladder uptake” value ([1]; 60 min p.i., i.v.) was 4.54 ± 0.22 %IA/g and the Tumor uptake ([1]; 120 min p.i., i.v.) was 0.54 ± 0.02 %IA/g. For the same substance, the Blood uptake ([1]; 120 min p.i., i.v.) was 0.07 ± 0.01 %IA/g, the Heart uptake ([1]; 120 min p.i., i.v.) was 0.12 ± 0.01 %IA/g and the Intestine uptake ([1]; 120 min p.i., i.v.) was 0.18 ± 0.01 %IA/g. The Kidney uptake ([1]; 120 min p.i., i.v.) was 2.45 ± 0.12 %IA/g, the Liver uptake ([1]; 120 min p.i., i.v.) was 0.53 ± 0.02 %IA/g and the Lung uptake ([1]; 120 min p.i., i.v.) was 0.42 ± 0.02 %IA/g. The Muscle uptake ([1]; 120 min p.i., i.v.) was 0.12 ± 0.04 %IA/g, the Pancreas uptake ([1]; 120 min p.i., i.v.) was 0.89 ± 0.04 %IA/g and the Spleen uptake ([1]; 120 min p.i., i.v.) was 0.24 ± 0.11 %IA/g. The Stomach uptake ([1]; 120 min p.i., i.v.) was 0.41 ± 0.02 %IA/g and the “Urine + urinary bladder uptake” value ([1]; 120 min p.i., i.v.) was 5.55 ± 0.03 %IA/g.
